From US20220347267A1, “METHODS TO IMPROVE PATIENT RESPONSE TO IMMUNE CHECKPOINT INHIBITORS AND FUNCTIONAL TESTS TO PREDICT RESPONSE” (Biomarker Strategies, LLC, priority 2019, published 2022) come the findings set out here.

What all share (assay type): cell-based, human
The subject of one experiment is H1650 cells. Briefly: PD-L1 western blot after modulators (EM and MTAs). The note with it: NSCLC H1650, 30 minutes, 3 hours, 24 hours. The text has this:
(§1) Cell lines were acquired from ATCC, Sigma, or DSMZ. Human non-small cell lung carcinoma (NSCLC) cell lines H292 (ATCC no. CRL-1848.), H1299 (ATCC no. CRL-5803), H520 (ATCC no. CRL-5811), CALU6 (ATCC no. HTB-56), H1975 (ATCC no. CRL-5908), H460 (ATCC no. HTB-177), H2126 (ATCC no. CCL-256), H1650 (ATCC no. CRL-5883), and H2087 (ATCC no. CRL-5922) were used for this experiment along with head and neck squamous cell carcinoma (HNSCC) cell lines BHY (DSMZ ACC 404), CAL27 (ATCC no. CRL-2095), KYSE410 (Sigma), and A253 (ATCC no. HTB-41), melanoma cell lines A375 (ATCC no. CRL-1619), COL0853 (Sigma), and MM127 (Sigma) pancreatic cancer cell lines BXPC3 (ATCC no. CRL-1687), colorectal cancer cell lines […], HCT116 (ATCC no. CCL-247EMT), and breast cancer cell lines BT549 (ATCC no. HTB-122), BT20 (ATCC no. HTB-19), and T47D (ATCC no. HTB-133). Cells were maintained in manufacturer-recommended conditions at 37° C. inside humidified 5% CO2 incubators. Sub-cultivation and harvesting for all cell lines were performed using Accutase (GIBCO Life Technologies; cat. no. A1110501) at 37° C. for 10 minutes. Cell viability was measured using trypan blue exclusion staining in conjunction with the Countess II Automated Cell Counter (Thermo Fischer Scientific; cat. no. AMQAX1000). Measurements were made in duplicate and the average number of viable cells was recorded prior to experiments.
(§2) T7039), and IL-10 (50 ng/ml; Sigma Aldrich cat. no. SRP3071) were administered to cell lines for various times including 30 minutes, 3 hour, and 24 hour time intervals prior to cell lysis and protein extraction.
(§3) To determine the effects of the aforementioned molecules on the modulation of PD-L1, we selected various NSCLC, HNSCC, breast cancer, melanoma, colorectal cancer, and pancreatic cancer cell lines as examples. Other diseases or cell lines could be used readily as could more complex samples such as cells isolated from xenografts and clinical samples. Cells were plated, for three different time points (30 minutes, 3 hours, and 24 hours), inside 6-well petri dishes with 2 mL of appropriate medium. Plates were incubated for 24 hours in 5% CO2 incubators at 37° C. After 24 hours, each 6-well plate was washed with PBS (Gibco Life Technologies, cat. no. 10010023) followed by fresh media being added along with each cell line's vehicle control or appropriate modulator for each specific time point, and were placed in CO2 incubators until their modulation time point was reached. Other conditions can be readily used, such as processing on automated systems such as SnapPath. At the end of each time point, while keeping plates on ice, cell lysis was conducted by aspirating culture medium from each plate, washing of each plate three times with 5 ml of cold PBS (Gibco Life Technologies, cat. no. 10010023) and culminated with the addition of cold 1× lysis buffer containing (Cell Signaling, cat. no. 9803 S) protease inhibitor cocktail (Cell Signaling, cat. no. 5871S), phosphatase inhibitor cocktail (Cell Signaling, cat. no. 5870S), and PMSF (Fisher Scientific, cat. no. ICN19538101). Plates were then placed on ice for ten minutes, swirling each plate intermittently. Aliquots of protein lysates were prepared and then stored at −80° C. until protein quantification and Western blot analysis was to be conducted. The protein concentration of each lysate was analyzed by using the Pierce 660 Protein Assay Reagent (Thermo Fisher Scientific, cat. no. 22660) and testing of each sample was conducted in duplicate. Two μg of protein was then loaded per lane into 10% Midi-PROTEAN TGX Precast Gels (Bio Rad, cat. no. 5671034) along with Kaleidoscope Prestained Protein Standard (BioRad, cat. no. 1610375) which ran at 220V for 45 minutes. Proteins were transferred to mini-PVDF membranes (BioRad, cat. no. 1704156) in 3 minutes using the Trans-Blot Turbo Transfer System (BioRad, cat. no. 1704150EDU).

The subject of another experiment is BT549 cells. In words: PD-L1 western blot after modulators (EM and MTAs). The note with it: Breast BT549, 30 minutes, 3 hours, 24 hours.
Description: as §1, §2, §3

The test system of another experiment is H292 cells. Briefly: PD-L1 western blot after modulators (EM and MTAs). The note with it: NSCLC H292, 30 minutes, 3 hours, 24 hours.
Description: as §1, §2, §3

In another experiment the test system is BT20 cells. In words: PD-L1 western blot after modulators (EM and MTAs). The note with it: Breast BT20, 30 minutes, 3 hours, 24 hours.
Description: as §1
(§4) Enhancer Molecule and Therapies: IFNγ, (10 ng/ml; Sigma Aldrich, cat.no 11040596001), TNFα (10 ng/ml; BD Biosciences cat. no. 554618), Osimertinib (100 ng/ml; Selleckchem cat.no. S7297), Everolimus (100 ng/ml; Selleckchem cat.no S1120), GSK458 (10 ng/ml; Selleckchem cat. no. S2658), TNFb (50 ng/ml; Sigma Aldrich cat. no.), GSK795 (1,000 ng/ml; Selleckchem cat. no. S7492), IL-12 (50 ng/ml; Sigma Aldrich SRP3073), GM-CSF (50 ng/ml; Sigma Aldrich cat. no. G5035), IL-1a (1 ng/ml; Sigma Aldrich cat. no. 12778-), IL-6 (50 ng/ml; Sigma Aldrich), IL-17 (100 ng/ml; Sigma Aldrich cat. no. SRP3080), TGFb (1 ng/ml; Sigma Aldrich cat. no. T7039), and IL-10 (50 ng/ml; Sigma Aldrich cat. no. SRP3071) were administered to cell lines for various times including 30 minutes, 3 hour, and 24 hour time intervals prior to cell lysis and protein extraction.
as §3, with “The protein concentration of each lysate was analyzed by using the Pierce 660 Protein Assay Reagent (Thermo Fisher Scientific, cat. no. 22660) and testing of each sample was conducted in duplicate. Two μg of protein was then loaded per lane into 10% Midi-PROTEAN TGX Precast Gels (Bio Rad, cat. no. 5671034) along with Kaleidoscope Prestained Protein Standard (BioRad, cat. no. 1610375) which ran at 220V for 45 minutes. Proteins were transferred to mini-PVDF membranes (BioRad, cat. no. 1704156) in 3 minutes using the Trans-Blot Turbo Transfer System (BioRad, cat. no. 1704150EDU).” left out
(In general: Immunoblotting shows a protein as a band on a membrane.)

Another experiment deals with H1975 cells. Briefly: PD-L1 western blot after modulators (EM and MTAs). The note with it: NSCLC H1975, 30 minutes, 3 hours, 24 hours.
Description: as §1, §4
as §3, with “The protein concentration of each lysate was analyzed by using the Pierce 660 Protein Assay Reagent (Thermo Fisher Scientific, cat. no. 22660) and testing of each sample was conducted in duplicate. Two μg of protein was then loaded per lane into 10% Midi-PROTEAN TGX Precast Gels (Bio Rad, cat. no. 5671034) along with Kaleidoscope Prestained Protein Standard (BioRad, cat. no. 1610375) which ran at 220V for 45 minutes. Proteins were transferred to mini-PVDF membranes (BioRad, cat. no. 1704156) in 3 minutes using the Trans-Blot Turbo Transfer System (BioRad, cat. no. 1704150EDU).” left out

In a further experiment the test system is KYSE410 cells. Briefly: PD-L1 western blot after modulators (EM and MTAs). The note with it: Head and neck KYSE410, 30 minutes, 3 hours, 24 hours.
Description: as §1, §4
as §3, with “The protein concentration of each lysate was analyzed by using the Pierce 660 Protein Assay Reagent (Thermo Fisher Scientific, cat. no. 22660) and testing of each sample was conducted in duplicate. Two μg of protein was then loaded per lane into 10% Midi-PROTEAN TGX Precast Gels (Bio Rad, cat. no. 5671034) along with Kaleidoscope Prestained Protein Standard (BioRad, cat. no. 1610375) which ran at 220V for 45 minutes. Proteins were transferred to mini-PVDF membranes (BioRad, cat. no. 1704156) in 3 minutes using the Trans-Blot Turbo Transfer System (BioRad, cat. no. 1704150EDU).” left out

A further experiment relates to H2126 cells. Briefly: PD-L1 western blot after modulators (EM and MTAs). The note with it: NSCLC H2126, 30 minutes, 3 hours, 24 hours.
Description: as §1, §4
as §3, with “The protein concentration of each lysate was analyzed by using the Pierce 660 Protein Assay Reagent (Thermo Fisher Scientific, cat. no. 22660) and testing of each sample was conducted in duplicate. Two μg of protein was then loaded per lane into 10% Midi-PROTEAN TGX Precast Gels (Bio Rad, cat. no. 5671034) along with Kaleidoscope Prestained Protein Standard (BioRad, cat. no. 1610375) which ran at 220V for 45 minutes. Proteins were transferred to mini-PVDF membranes (BioRad, cat. no. 1704156) in 3 minutes using the Trans-Blot Turbo Transfer System (BioRad, cat. no. 1704150EDU).” left out

Experiment [1] deals with various NSCLC, HNSCC, breast cancer, melanoma, colorectal cancer, and pancreatic cancer cell lines. In words: PD-L1 western blot after modulators, summary over all samples. The note with it: depending on the sample, summary of Table 3.
Description: as §1, §2, §3

B1: IL1a: interleukin modulator, 1 ng/ml; Sigma Aldrich (protein, UniProt P01583 113-271, looked up)
Interleukin-1 alpha: SAPFSFLSNVKYNFMRIIKYEFILNDALNQSIIRANDQYLTAAALHNLDEAVKFDMGAYKSSKDDAKITVILRISKTQLYVTAQDEDQPVLLKEMPEIPKTITGSETNLLFFWETHGTKNYFTSVAHPNLFIATKQDYWVCLAGGPPSITDFQILENQA
Take B1: the “PD-L1 Response” value in the experiment with H1650 cells, in the experiment with BT549 cells, with H292 cells, with BT20 cells, with H1975 cells and with KYSE410 cells was “Up” each time. Further, the “PD-L1 Response” value in the experiment with H2126 cells was “Up”. Moreover, the “regulation of PD-L1 across samples” value in experiment [1] was “only led to upregulation”.
